Experimental findings from paper PMC8384840 are described below.

For data set [1], the target named is Lactate dehydrogenase (LDH) from rabbit muscle (rabbit) (UniProt P13491).
For data set [2] the target is unchanged. The source holds these as a separate data set.
Data set [3] has the same target. The experiment in a line: SEC; 2 µM luciferase (45 °C) or LDH (55 °C) heat shocked 15 min with 20 µM HSPB1 construct, or the HSPB1 construct heat shocked alone; analysed at the start (0 h) of the disaggregation reaction; Superose 12, reaction buffer, 4 °C; fractions detected by immunoblot. On the technique in general: In gel filtration, larger molecules generally elute earlier.

A further data set has as its target HSPB1-3D (UniProt P04792). Described as above.
The target of data set [4] is Lactate dehydrogenase (LDH) from rabbit muscle (rabbit) (UniProt P13491). The data set is described as follows: SEC; native luciferase or LDH alone; Superose 12 10/300 GL, reaction buffer, 4 °C; 1 mL fractions detected by immunoblot.

The substance “HSPB1-3D (from UniProt P04792 1-205) (natural protein)” registered a decrease of the optical density at 320 nm (light scattering) of 2 µM LDH aggregating at 55 °C with 20 µM HSPB1-3D, against LDH alone in data set [1] of 90%.
“HSPB1-3D-GxG (from UniProt P04792 1-205) (natural protein)” gave a decrease of the optical density at 320 nm (light scattering) of 2 µM LDH aggregating at 55 °C with 20 µM HSPB1-3D-GxG, against LDH alone in data set [2] of 95%. For the same substance, in data set [3], the percent of HSPB1-3D-GxG in the large molecular size fractions after heat shock with LDH was 20%.
Take “Lactate dehydrogenase (LDH) from rabbit muscle”: in the data set with HSPB1-3D, the “percent of total HSPB1-3D in the high molecular size fractions (7-9 mL) after heat shock with the substrate” value was ~ 20% and 40%, respectively, of the total amount of HSPB1-3D was found in high molecular size fractions.
As for “Lactate dehydrogenase (LDH) from rabbit muscle (from UniProt P13491 1-332) (enzyme)”, in data set [4], the stoichiometry N is 4.

The term stoichiometry N denotes the number of molecules, sites or subunits per partner or assembly.
